Measurements from the supplement of paper PMC9112550, “Optimization of the antimicrobial peptide Bac7 by deep mutational scanning” (BMC Biology, 2022).

System: Escherichia coli TOP10
Test: shrunken log2 fold change of peptide-encoding DNA abundance (4.5 h post-induction vs induction); higher = less antimicrobial activity (less host growth inhibition)
Conditions: time post-induction: 4.5 h; library: site-saturation at positions 5, 18, 19, 20
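Further: peptides expressed intracellularly from a pBAD plasmid library in pooled LB shake-flask culture, induced with 0.3% L-arabinose, DNA abundance read by NGS, three biological replicates, DESeq2 with apeglm shrinkage.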

In the case of RRIRARPPRLPRPRPRPSITPRP, the “shrunken log2 fold change” value is reported as 0.107.

RRIRFRPPRLPRPRPRPDGVPRP was tested, and the “shrunken log2 fold change” value was -0.14.

In the case of RRIRYRPPRLPRPRPRPRHEPRP, the “shrunken log2 fold change” value is reported as -0.802.

With RRIRQRPPRLPRPRPRPHEMPRP the “shrunken log2 fold change” value was -0.111.

RRIRFRPPRLPRPRPRPYGCPRP was tested, and the “shrunken log2 fold change” value was -0.531.

For RRIRSRPPRLPRPRPRPIVCPRP, the “shrunken log2 fold change” value was 0.0317.

In the case of RRIRARPPRLPRPRPRPEGKPRP, the “shrunken log2 fold change” value is reported as 0.702.

For RRIRGRPPRLPRPRPRPMSDPRP, the “shrunken log2 fold change” value was 0.34.

For RRIRRRPPRLPRPRPRPPHHPRP, the “shrunken log2 fold change” value was 1.09.

In the case of RRIRERPPRLPRPRPRPHAVPRP, the “shrunken log2 fold change” value is reported as -0.34.

RRIRWRPPRLPRPRPRPTEYPRP was tested, and the “shrunken log2 fold change” value was -0.0755.

RRIRPRPPRLPRPRPRPLTRPRP was tested, and the “shrunken log2 fold change” value was 0.103.

With RRIRFRPPRLPRPRPRPDHAPRP the “shrunken log2 fold change” value was -0.102.

For RRIRRRPPRLPRPRPRPIETPRP, the “shrunken log2 fold change” value was -0.00874.

In the case of RRIRHRPPRLPRPRPRPSQWPRP, the “shrunken log2 fold change” value is reported as -0.451.

RRIRMRPPRLPRPRPRPNCGPRP was tested, and the “shrunken log2 fold change” value was -0.216.

With RRIRFRPPRLPRPRPRPPENPRP the “shrunken log2 fold change” value was 0.102.

RRIRRRPPRLPRPRPRPGHHPRP was tested, and the “shrunken log2 fold change” value was -0.139.

With RRIRLRPPRLPRPRPRPSKMPRP the “shrunken log2 fold change” value was -0.212.

RRIRSRPPRLPRPRPRPNPWPRP was tested, and the “shrunken log2 fold change” value was -0.0604.

RRIRARPPRLPRPRPRPELRPRP was tested, and the “shrunken log2 fold change” value was 1.14.

With RRIRQRPPRLPRPRPRPVCEPRP the “shrunken log2 fold change” value was -0.00878.

RRIRQRPPRLPRPRPRPPNLPRP was tested, and the “shrunken log2 fold change” value was -0.00283.

For RRIRSRPPRLPRPRPRPFDWPRP, the “shrunken log2 fold change” value was -0.0461.

With RRIRARPPRLPRPRPRPSRNPRP the “shrunken log2 fold change” value was -0.0178.

For RRIRMRPPRLPRPRPRPATMPRP, the “shrunken log2 fold change” value was 0.256.

In the case of RRIRYRPPRLPRPRPRPPGLPRP, the “shrunken log2 fold change” value is reported as 0.148.

RRIRERPPRLPRPRPRPTKSPRP was tested, and the “shrunken log2 fold change” value was -0.00427.

RRIRFRPPRLPRPRPRPCHQPRP was tested, and the “shrunken log2 fold change” value was -0.188.

RRIRARPPRLPRPRPRPRLFPRP was tested, and the “shrunken log2 fold change” value was 0.465.

RRIRTRPPRLPRPRPRPFQVPRP was tested, and the “shrunken log2 fold change” value was -0.0305.

With RRIRVRPPRLPRPRPRPDMFPRP the “shrunken log2 fold change” value was 0.0441.

In the case of RRIRWRPPRLPRPRPRPVHEPRP, the “shrunken log2 fold change” value is reported as 0.21.

RRIRIRPPRLPRPRPRPEGNPRP was tested, and the “shrunken log2 fold change” value was 0.0775.

For RRIRQRPPRLPRPRPRPESIPRP, the “shrunken log2 fold change” value was 0.0598.

With RRIRTRPPRLPRPRPRPMCSPRP the “shrunken log2 fold change” value was -0.0861.

RRIRWRPPRLPRPRPRPLDDPRP was tested, and the “shrunken log2 fold change” value was 0.454.

For RRIRLRPPRLPRPRPRPESHPRP, the “shrunken log2 fold change” value was -0.118.

RRIRGRPPRLPRPRPRPTISPRP was tested, and the “shrunken log2 fold change” value was 0.534.

RRIRMRPPRLPRPRPRPNVYPRP was tested, and the “shrunken log2 fold change” value was -0.368.

With RRIRQRPPRLPRPRPRPMKIPRP the “shrunken log2 fold change” value was -0.0609.

In the case of RRIRARPPRLPRPRPRPDRPPRP, the “shrunken log2 fold change” value is reported as 0.448.

In the case of RRIRARPPRLPRPRPRPRCIPRP, the “shrunken log2 fold change” value is reported as 0.459.

With RRIRCRPPRLPRPRPRPSFQPRP the “shrunken log2 fold change” value was -0.384.

With RRIRDRPPRLPRPRPRPSCWPRP the “shrunken log2 fold change” value was 0.585.

RRIRNRPPRLPRPRPRPCYYPRP was tested, and the “shrunken log2 fold change” value was -0.387.

For RRIRMRPPRLPRPRPRPRHGPRP, the “shrunken log2 fold change” value was 0.83.

For RRIRFRPPRLPRPRPRPLLFPRP, the “shrunken log2 fold change” value was -0.315.

In the case of RRIRTRPPRLPRPRPRPQLTPRP, the “shrunken log2 fold change” value is reported as -0.0274.

With RRIRNRPPRLPRPRPRPREVPRP the “shrunken log2 fold change” value was 0.00782.

For RRIRLRPPRLPRPRPRPRLTPRP, the “shrunken log2 fold change” value was 0.143.

RRIRQRPPRLPRPRPRPWHNPRP was tested, and the “shrunken log2 fold change” value was -0.385.

RRIRLRPPRLPRPRPRPWVQPRP was tested, and the “shrunken log2 fold change” value was -0.118.

In the case of RRIRLRPPRLPRPRPRPIDMPRP, the “shrunken log2 fold change” value is reported as -0.184.

With RRIRNRPPRLPRPRPRPTGHPRP the “shrunken log2 fold change” value was 0.0742.

RRIRYRPPRLPRPRPRPFDCPRP was tested, and the “shrunken log2 fold change” value was -0.0565.

For RRIRQRPPRLPRPRPRPSEVPRP, the “shrunken log2 fold change” value was -0.022.

For RRIRLRPPRLPRPRPRPQGTPRP, the “shrunken log2 fold change” value was 0.0413.

In the case of RRIRGRPPRLPRPRPRPLRFPRP, the “shrunken log2 fold change” value is reported as 0.917.

RRIRFRPPRLPRPRPRPYTTPRP was tested, and the “shrunken log2 fold change” value was -0.333.

With RRIRNRPPRLPRPRPRPVYGPRP the “shrunken log2 fold change” value was -0.0867.

For RRIRSRPPRLPRPRPRPPRHPRP, the “shrunken log2 fold change” value was 0.219.

RRIRRRPPRLPRPRPRPCNKPRP was tested, and the “shrunken log2 fold change” value was -0.137.

For RRIRTRPPRLPRPRPRPLFDPRP, the “shrunken log2 fold change” value was -0.451.

RRIRFRPPRLPRPRPRPEVLPRP was tested, and the “shrunken log2 fold change” value was -0.0031.

RRIRRRPPRLPRPRPRPCNQPRP was tested, and the “shrunken log2 fold change” value was -0.0711.

With RRIRLRPPRLPRPRPRPYVRPRP the “shrunken log2 fold change” value was 0.0394.

RRIRWRPPRLPRPRPRPYEDPRP was tested, and the “shrunken log2 fold change” value was -0.231.

In the case of RRIRFRPPRLPRPRPRPHNVPRP, the “shrunken log2 fold change” value is reported as 0.0631.

For RRIRERPPRLPRPRPRPWPYPRP, the “shrunken log2 fold change” value was 0.00489.

With RRIRFRPPRLPRPRPRPCNQPRP the “shrunken log2 fold change” value was -0.649.

In the case of RRIRMRPPRLPRPRPRPNWTPRP, the “shrunken log2 fold change” value is reported as 0.132.

For RRIRMRPPRLPRPRPRPYSHPRP, the “shrunken log2 fold change” value was -0.352.

For RRIRYRPPRLPRPRPRPRDKPRP, the “shrunken log2 fold change” value was -0.667.

In the case of RRIRVRPPRLPRPRPRPNFDPRP, the “shrunken log2 fold change” value is reported as -0.0598.

RRIRARPPRLPRPRPRPGAHPRP was tested, and the “shrunken log2 fold change” value was 0.669.

RRIRLRPPRLPRPRPRPNLDPRP was tested, and the “shrunken log2 fold change” value was -0.18.

With RRIRSRPPRLPRPRPRPDTGPRP the “shrunken log2 fold change” value was -0.00127.

With RRIRVRPPRLPRPRPRPMVWPRP the “shrunken log2 fold change” value was 0.117.

For RRIRERPPRLPRPRPRPDPGPRP, the “shrunken log2 fold change” value was 0.0879.

In the case of RRIRYRPPRLPRPRPRPGDNPRP, the “shrunken log2 fold change” value is reported as -0.0446.

In the case of RRIRTRPPRLPRPRPRPDAHPRP, the “shrunken log2 fold change” value is reported as 0.128.

In the case of RRIRQRPPRLPRPRPRPHTFPRP, the “shrunken log2 fold change” value is reported as -0.174.

In the case of RRIRWRPPRLPRPRPRPSEAPRP, the “shrunken log2 fold change” value is reported as 0.0701.

RRIRQRPPRLPRPRPRPICHPRP was tested, and the “shrunken log2 fold change” value was -0.14.

In the case of RRIRTRPPRLPRPRPRPVRDPRP, the “shrunken log2 fold change” value is reported as 0.543.

With RRIRGRPPRLPRPRPRPLVCPRP the “shrunken log2 fold change” value was 0.584.

In the case of RRIRARPPRLPRPRPRPMNLPRP, the “shrunken log2 fold change” value is reported as -0.313.

With RRIRWRPPRLPRPRPRPCTKPRP the “shrunken log2 fold change” value was 0.311.

For RRIRGRPPRLPRPRPRPEMCPRP, the “shrunken log2 fold change” value was 1.4.

With RRIRFRPPRLPRPRPRPGGDPRP the “shrunken log2 fold change” value was 0.37.

With RRIRFRPPRLPRPRPRPILGPRP the “shrunken log2 fold change” value was 0.0151.

For RRIRTRPPRLPRPRPRPKSEPRP, the “shrunken log2 fold change” value was -0.144.

With RRIRVRPPRLPRPRPRPRWEPRP the “shrunken log2 fold change” value was 0.329.

RRIRNRPPRLPRPRPRPCDKPRP was tested, and the “shrunken log2 fold change” value was 0.14.

In the case of RRIRSRPPRLPRPRPRPVETPRP, the “shrunken log2 fold change” value is reported as 0.00492.

With RRIRQRPPRLPRPRPRPARTPRP the “shrunken log2 fold change” value was 0.167.

For RRIRARPPRLPRPRPRPFDHPRP, the “shrunken log2 fold change” value was -0.394.

RRIRMRPPRLPRPRPRPWNKPRP was tested, and the “shrunken log2 fold change” value was -0.535.

With RRIRCRPPRLPRPRPRPPVPPRP the “shrunken log2 fold change” value was 0.587.

For RRIRHRPPRLPRPRPRPNHYPRP, the “shrunken log2 fold change” value was -0.939.

In the case of RRIRPRPPRLPRPRPRPSCNPRP, the “shrunken log2 fold change” value is reported as -0.314.

RRIRVRPPRLPRPRPRPPLDPRP was tested, and the “shrunken log2 fold change” value was 0.433.

With RRIRHRPPRLPRPRPRPASLPRP the “shrunken log2 fold change” value was -0.0081.

In the case of RRIRHRPPRLPRPRPRPLRDPRP, the “shrunken log2 fold change” value is reported as 0.271.

With RRIRKRPPRLPRPRPRPHRKPRP the “shrunken log2 fold change” value was -0.0475.

With RRIRLRPPRLPRPRPRPHFFPRP the “shrunken log2 fold change” value was -0.128.

For RRIRNRPPRLPRPRPRPEKVPRP, the “shrunken log2 fold change” value was -0.105.

For RRIRPRPPRLPRPRPRPSWSPRP, the “shrunken log2 fold change” value was -0.0705.

With RRIRGRPPRLPRPRPRPLFEPRP the “shrunken log2 fold change” value was 0.739.

For RRIRVRPPRLPRPRPRPMVCPRP, the “shrunken log2 fold change” value was -0.062.

RRIRERPPRLPRPRPRPKELPRP was tested, and the “shrunken log2 fold change” value was 0.00511.

For RRIRFRPPRLPRPRPRPGWPPRP, the “shrunken log2 fold change” value was 0.489.

With RRIRVRPPRLPRPRPRPRVEPRP the “shrunken log2 fold change” value was 0.558.

With RRIRNRPPRLPRPRPRPFRLPRP the “shrunken log2 fold change” value was -0.505.

With RRIRPRPPRLPRPRPRPFENPRP the “shrunken log2 fold change” value was -0.00884.

For RRIRNRPPRLPRPRPRPHYPPRP, the “shrunken log2 fold change” value was -0.465.

RRIRSRPPRLPRPRPRPSEQPRP was tested, and the “shrunken log2 fold change” value was -0.0884.

With RRIRHRPPRLPRPRPRPLERPRP the “shrunken log2 fold change” value was -0.0962.

With RRIRMRPPRLPRPRPRPKARPRP the “shrunken log2 fold change” value was 1.61.

In the case of RRIRKRPPRLPRPRPRPNILPRP, the “shrunken log2 fold change” value is reported as -0.193.

In the case of RRIRNRPPRLPRPRPRPKRHPRP, the “shrunken log2 fold change” value is reported as -0.455.

With RRIRLRPPRLPRPRPRPPWMPRP the “shrunken log2 fold change” value was 0.167.

For RRIRLRPPRLPRPRPRPHNFPRP, the “shrunken log2 fold change” value was -0.115.

With RRIRMRPPRLPRPRPRPNGFPRP the “shrunken log2 fold change” value was 0.207.
